Key:
[1] = system: leaves of Nicotiana benthamiana; assay: Transient expression of HQT in leaves of Nicotiana benthamiana; format: in vivo; conditions: for HQT enzyme activity in leaves: plants expressing HQT under the control of the 35S promoter (FIG. 6); for amount of chlorogenic acid in vivo in plants: plants expressing HQT under the control of the 35S promoter, HPLC after 4 days (FIG. 6)
Method: Leaves were infiltrated with Agrobacterium tumefaciens C58C1 transformed with the plasmid pGFP, which contains the cDNA encoding GFP under control of the 35S promoter, along with bacteria transformed with either the plasmid p19 which carries a cDNA encoding a gene-silencing protein or the control plasmid pBIN19.
Soluble phenolics were extracted by vortexing 30 mg of frozen, powdered leaf material in 300 μl of 70% methanol. After addition of 100 μl distilled water, the extract was vortexed again and then spun for 10 sec at 13,000 g to pellet the debris. The supernatant was analysed by gradient HPLC (apparatus from Spectra Physics, San Jose, Calif.) using a Columbus 5-μm C18 column (25 cm×4.6 mm; Phenomenex, Macclesfiled, Cheshire, UK). Solvent A was 1 mM trifluoroacetic acid, solvent B was acetonitrile, and the gradient was run for 65 min at flow rate of 1 ml min^−1 with the following concentrations: 0 min :100% A, 0% B; 50 min: 60% A, 40% B; 60 min: 30% A, 70% B; 65 min: 100% A, 0% B. The column eluant was monitored using a Spctra Fous scanning detector (Spectra Physics). A chlorogenic acid standard (Sigma) was used to quantify the amount of chlorogenic acid in the leaf extracts.
After the transfer of the overexpression constructs pTom and pTob, and the iRNA constructs pFRNtom and pFRN-tob to Agrobacterium tumefaciens C58C1 (DEBLAERE et al., 1985) single colonies were used for growing 50 mL overnight cultures. Additional 50 ml overnight cultures of Agrobacterium tumefaciens C58C1 containing expression constructs of the green fluorescent protein (PGFP) or the gene silencing inhibitor protein 19 (p19; kindly provided by O. Vionnet) or the empty binary vectors pBIN19 and pFRN were also grown. The cells were precipitated by centrifugation at 4000 g for 20 min and resuspended in 50 ml 10 mM MgCl2. After addition of 50 μl 100 mM acetosyringene the cells were incubated at room temperature overnight. To overexpress HQT similar amounts of the cultures containing pGFP, pTom, pTob were mixed with the same volume of cultures containing either pBIN19 or p19 and each mixture was used to infiltrate three leaves of a Nicotiana benthamiana plant. […] For gene silencing the cultures containing pFRN-tom, pFRN-tob and pFRN were used to infiltrate three leaves of Nicotiana benthamiana.

[2] = system: HQT enzyme activity (caffeoyl CoA and quinic acid as substrates); assay: HQT enzyme assay with crude extracts from E. coli expressing the recombinant protein; format: biochemical, Escherichia coli; conditions: recombinant protein expressed in E. coli, decrease of caffeoyl-CoA measured spectrophotometrically (FIG. 5)
Method: As described above, HQT catalyses the production of chlorogenic acid via transfer of the caffeoyl moiety of caffeoyl-CoA to quinic acid. Such activity can be assessed, for example, using the assay described in Example 2. Briefly, the assay uses caffeoyl CoA and quinic acid as substrates, and the rate of conversion of caffeoyl CoA to chlorogenic acid is determined by spectrophotometry.
The reaction was initiated by adding the substrate quinic acid and the enzyme activity was measured spectrophotometrically as decrease of the amount of caffeoyl-CoA.
The enzyme activity was determined by spectrophotometry at 30° C. The reaction mixture contained in a total volume of 1 ml: 100 mM Na-Pi buffer pH 7.0, 1 mM EDTA, 16.8 μM caffeoyl CoA and 10-50 μl protein extract. […] The extinction coefficient for caffeoyl CoA is 1.8×10^4 M^−1 cm^−1 (ZENK et al., 1980). The synthesis of caffeoyl CoA was carried out as described previously (SEMLER et al., 1987).
The full-length cDNA of HQT from tomato was subcloned in frame into the NcoI and BamHI-sites of the expression vector pSTAG under the control of the T7 RNA-Polymerase promoter. This strategy led to the introduction of a sequence encoding an S-TAG at the 5′-end of the cDNA. According to procedures provided by the manufacturer (Novagen), the expression and purification of the fusion protein was carried out using the S-TAG™ Thrombin Purification Kit. The enzyme activity of the purified protein was then analysed in HQT enzyme assays.

B1: tobHQT: hydroxycinnamoyl-CoA quinate hydroxycinnamoyl transferase from tobacco, 436 amino acids, SEQ ID NO 2 (protein, listed as Nicotiana tabacum)
chain: MGSEKMMKINIKESTLVKPSKPTPTKRLWSSNLDLIVGRIHLLTVYFYKPNGSSNFFDSKIMKEALSNVLVSFYPMAGRLARDEQGRIEINCNGEGVLFVEAESDAFVDDFGDFTPSLELRKLIPTVDTSGDISTFPLIIFQVTRFKCGGVSLGGGVFHTLSDGLSSIHFINTWSDIARGLSVAIPPFIDRTLLRARDPPTSSFEHVEYHPPPSLISSSKSLESTSPKPSTTTMLKFSSDQLGLLKSKSKHDGSTYEILAAHIWRCTCKARALSDDQLTKLHVATDGRSRLCPPLPPGYLGNVVFTGTPMAKSSELLQEPLTNSAKRIHSALSKMDDNYLRSALDYLELLPDLSALIRGPTYFASPNLNINSWTRLPVHDSDFGWGRPIHMGPACILYEGTVYILPSPNSKDRNLRLAVCLDADHMPLFEKYLYEF
With B1 the “HQT enzyme activity in leaves” value [1] was “Increased HQT enzyme activity” and the “amount of chlorogenic acid in vivo in plants” value [1] was 2 fold.

B2: hsr201: tobacco hypersensitive response protein 201, a member of the transferase family (protein, UniProt Q8GT20 1-460, looked up)
Benzyl alcohol …: MDSKQSSELVFTVRRQKPELIAPAKPTPREIKFLSDIDDQEGLRFQIPVIQFYHKDSSMGRKDPVKVIKKAIAETLVFYYPFAGRLREGNGRKLMVDCTGEGIMFVEADADVTLEQFGDELQPPFPCLEELLYDVPDSAGVLNCPLLLIQVTRLRCGGFIFALRLNHTMSDAPGLVQFMTAVGEMARGASAPSILPVWCRELLNARNPPQVTCTHHEYDEVRDTKGTIIPLDDMVHKSFFFGPSEVSALRRFVPHHLRKCSTFELLTAVLWRCRTMSLKPDPEEEVRALCIVNARSRFNPPLPTGYYGNAFAFPVAVTTAAKLSKNPLGYALELVKKTKSDVTEEYMKSVADLMVLKGRPHFTVVRTFLVSDVTRGGFGEVDFGWGKAVYGGPAKGGVGAIPGVASFYIPFKNKKGENGIVVPICLPGFAMETFVKELDGMLKVDAPLDNSNYAIIRPAL
In the case of B2, the HQT enzyme activity [2] is reported as “no enzyme activity was detected” and the HQT enzyme activity ([2]; listed as Hsr201) is reported as “no HQT enzyme activity”.

B3: tomHQT: hydroxycinnamoyl-CoA quinate hydroxycinnamoyl transferase from tomato, 430 amino acids, SEQ ID NO 1 (protein, listed as Lycopersicon esculentum)
chain: MGSEKMMKINIKESTLVKPSKPTPTKRIWSSNLDLIVGRIHLLTVYFYKPNGSSNFFDNKVIKEALSNVLVSFYPMAGRLGRDEQGRIEVNCNGEGVLFVEAESDSCVDDFGDFTPSLELRKLIPSVETSGDISTFPLVIFQITRFKCGGVALGGGVFHTLSDGLSSIHFINTWSDIARGLSVAVPPFIDRTLLRARDPPTYSFEHVEYHPPPTLNSSKNRESSTTTMLKFSSEQLGLLKSKSKNEGSTYEILAAHIWRCTCKARGLPEDQLTKLHVATDGRSRLCPPLPPGYLGNVVFTATPIAKSCELQSEPLTNSVKRIHNELIKMDDNYLRSALDYLELQPDLSTLIRGPAYFASPNLNINSWTRLPVHECDFGWGRPIHMGPACILYEGTIYIIPSPNSKDRNLRLAVCLDAGHMSLFEKYLYEL
For B3, the “HQT enzyme activity in leaves” value [1] was “Increased HQT enzyme activity”, the “amount of chlorogenic acid in vivo in plants” value [1] was 2 fold and the HQT enzyme activity [2] was “showed HQT enzyme activity”.
